For this series, the target named is T1, MmNAC17 (Malus micromalus, UniProt D9ZJ94 1-336).
T1 sequence: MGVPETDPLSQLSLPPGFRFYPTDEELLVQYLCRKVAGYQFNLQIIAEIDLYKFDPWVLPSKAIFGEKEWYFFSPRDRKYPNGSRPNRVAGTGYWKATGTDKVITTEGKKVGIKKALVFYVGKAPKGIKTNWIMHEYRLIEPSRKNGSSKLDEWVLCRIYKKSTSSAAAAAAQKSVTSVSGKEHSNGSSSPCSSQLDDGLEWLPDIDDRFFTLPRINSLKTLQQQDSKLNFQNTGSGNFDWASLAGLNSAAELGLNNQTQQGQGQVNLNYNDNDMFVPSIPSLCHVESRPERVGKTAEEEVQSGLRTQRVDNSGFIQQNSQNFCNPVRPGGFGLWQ
Description: EMSA; binding disrupted by unlabeled competitor (100x); Chemiluminescence EMSA kit (Beyotime); binding buffer, salt, pH and temperature not stated. The conditions noted are these: protein: recombinant; tags: His (pET-30a, Ni-NTA purified); chain copies: 2; blunt.

B1: proMmLAR probe (dsDNA)
DNA 1: GAAGATATCACACGTAGCCAAAAGCG
DNA 2: CGCTTTTGGCTACGTGTGATATCTTC
Take B1: the binding result is “binds”.

B2: proMmF3H probe (dsDNA)
DNA 1: AGGTGAAGATCACGTGGCGCAATTTC
DNA 2: GAAATTGCGCCACGTGATCTTCACCT
Turning to B2, the binding result was “binds”.

Source of the values: article PMC11783756, “Sorbitol induces flavonoid accumulation as a secondary signal via the nanoencapsulated SPc/lncRNA809-MmNAC17 module against Alternaria alternata in Malus micromalus”.
